From publication PMC3459862

Target: GST-WC-1 mini, LXXLL motif mutant (LAQLL changed to LAQAA) (Neurospora crassa) (UniProt Q01371)
Test: pull-down

Sequence of UniProt Q01371 (Q01371 838-1000, change not shown): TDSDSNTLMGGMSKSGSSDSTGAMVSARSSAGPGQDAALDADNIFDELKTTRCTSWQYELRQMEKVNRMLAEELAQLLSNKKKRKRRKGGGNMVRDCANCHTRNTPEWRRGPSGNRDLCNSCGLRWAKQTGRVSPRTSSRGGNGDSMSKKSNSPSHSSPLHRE

percent decrease of retained Gcn5p against WC-1 mini: 45%
Substance: S. cerevisiae Gcn5p, 35S-radiolabeled (from UniProt Q03330 1-439) (enzyme)
